Data on seven molecules can be found in patent US20130273029A1 (Novartis, published 2013).

The term Kd denotes the equilibrium constant for the complex coming apart. The low end stands for higher affinity, the high end for lower affinity.

Positions count from the first letter of the chain named.

B1: MOR13765 (antibody, human IgG1, kappa, V domains shown)
VH: QVQLVQSGAEVKKPGESLKISCKGSGYSFTGSWVAWVRQMPGKGLEWMGIIYPGTSDTIYSPSFQGQVTISADKSISTAYLQWSSLKASDTAMYYCARVHIIQPPSAWSYNAMDVWGQGTLVTVSS
VL: DIQMTQSPSSLSASVGDRVTITCRASQSISTYLNWYQQKPGKAPKLLIFGASNLQSGVPSRFSGSGSGTDFTLTISSLQPEDFATYYCQQSITELFTFGQGTKVEIKR
notes: tested as IgG
B2: MOR13868 (antibody, human IgG1, kappa, V domains shown)
VH: B1 VH with T30S, G31N, S32Y, V34I, T55L
VL: B1 VL
notes: tested as IgG
B3: MOR13767 (antibody, human IgG1, kappa, V domains shown)
VH: B1 VH with G31T, T55Q
VL: B1 VL
notes: tested as IgG
B4: MOR13867 (antibody, human IgG1, kappa, V domains shown)
VH: B1 VH with T30S, G31N, S32Y, V34I, T55Q
VL: B1 VL
notes: tested as IgG
B5: MOR13766 (antibody, human IgG1, kappa, V domains shown)
VH: B1 VH with G31T, S32T, T55S
VL: B1 VL
notes: tested as IgG
B6: MOR13869 (antibody, human IgG1, kappa, V domains shown)
VH: B1 VH with T30S, G31N, S32Y, V34I, T55G
VL: B1 VL
notes: tested as IgG
B7: MOR13870 (antibody, human IgG1, kappa, V domains shown)
VH: B1 VH with T30S, G31N, S32Y, V34I
VL: B1 VL
notes: tested as IgG

T1 sequence (P21860 20-1342): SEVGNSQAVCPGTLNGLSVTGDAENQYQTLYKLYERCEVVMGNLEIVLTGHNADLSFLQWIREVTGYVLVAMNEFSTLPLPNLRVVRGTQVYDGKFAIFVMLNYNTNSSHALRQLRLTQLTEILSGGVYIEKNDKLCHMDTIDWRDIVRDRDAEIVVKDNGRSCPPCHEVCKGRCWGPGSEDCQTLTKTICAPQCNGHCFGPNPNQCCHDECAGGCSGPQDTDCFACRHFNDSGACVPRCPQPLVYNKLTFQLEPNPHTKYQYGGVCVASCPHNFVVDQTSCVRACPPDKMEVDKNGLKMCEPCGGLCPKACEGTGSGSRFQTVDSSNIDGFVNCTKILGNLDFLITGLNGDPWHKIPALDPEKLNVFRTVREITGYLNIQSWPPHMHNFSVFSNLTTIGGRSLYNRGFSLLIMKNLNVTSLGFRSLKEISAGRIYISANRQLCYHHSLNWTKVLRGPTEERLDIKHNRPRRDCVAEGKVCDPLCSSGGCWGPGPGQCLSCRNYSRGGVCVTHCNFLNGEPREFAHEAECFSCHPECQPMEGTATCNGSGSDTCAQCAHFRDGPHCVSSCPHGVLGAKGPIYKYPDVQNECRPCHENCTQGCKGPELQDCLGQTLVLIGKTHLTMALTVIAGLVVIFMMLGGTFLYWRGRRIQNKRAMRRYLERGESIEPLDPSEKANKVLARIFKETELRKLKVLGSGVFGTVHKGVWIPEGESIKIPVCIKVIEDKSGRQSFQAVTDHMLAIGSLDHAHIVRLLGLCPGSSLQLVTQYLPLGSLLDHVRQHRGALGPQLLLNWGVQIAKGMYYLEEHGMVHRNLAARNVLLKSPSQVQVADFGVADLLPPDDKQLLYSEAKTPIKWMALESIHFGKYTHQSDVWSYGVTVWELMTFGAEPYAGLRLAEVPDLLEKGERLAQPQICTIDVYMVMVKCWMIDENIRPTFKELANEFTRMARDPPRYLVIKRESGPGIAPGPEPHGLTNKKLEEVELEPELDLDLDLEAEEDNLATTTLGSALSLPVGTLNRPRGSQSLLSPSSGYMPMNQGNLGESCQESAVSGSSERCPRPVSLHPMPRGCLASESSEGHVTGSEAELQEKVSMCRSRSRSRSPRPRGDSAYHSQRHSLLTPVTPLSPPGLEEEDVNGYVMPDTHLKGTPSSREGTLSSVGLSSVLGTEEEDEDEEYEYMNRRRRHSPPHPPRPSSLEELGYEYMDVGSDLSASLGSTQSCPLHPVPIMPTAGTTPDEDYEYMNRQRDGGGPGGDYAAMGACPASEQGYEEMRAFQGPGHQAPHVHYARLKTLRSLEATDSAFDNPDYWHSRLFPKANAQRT

The first test addresses T1, Human HER3, endogenous, on human cancer cell lines (SK-Br-3, MCF7, BT-474) (human, UniProt P21860 20-1342). Briefly: cell-based or functional assay.
Regarding B1, the “BT474 pHER3 % inhibition” value was 61%, the “BT474 pHER3 IC50” value was found to be 806 pM, the “MCF7 pHER3 % inhibition” value worked out at 71% and the “MCF7 pHER3 IC50” value is 374 pM. Also, the “SK-Br-3 pHER3 % inhibition” value was determined as 79% and the “SK-Br-3 pHER3 IC50” value was 227 pM.
For the molecule B2, the “BT474 pHER3 % inhibition” value stood at 68%, the “BT474 pHER3 IC50” value stood at 894 pM, the “MCF7 pHER3 % inhibition” value was found to be 75% and the “MCF7 pHER3 IC50” value came out at 189 pM. The “SK-Br-3 pHER3 % inhibition” value worked out at 83% and the “SK-Br-3 pHER3 IC50” value turned out to be 205 pM.
Consider B3, for which the “BT474 pHER3 % inhibition” value amounted to 61%, the “BT474 pHER3 IC50” value was determined as 496 pM, the “SK-Br-3 pHER3 % inhibition” value is 78% and the “SK-Br-3 pHER3 IC50” value is 130 pM.
On to B4, for which the “BT474 pHER3 % inhibition” value was found to be 71%, the “BT474 pHER3 IC50” value is 643 pM, the “MCF7 pHER3 % inhibition” value turned out to be 78% and the “MCF7 pHER3 IC50” value is 267 pM. For the same molecule, the “SK-Br-3 pHER3 % inhibition” value came out at 83% and the “SK-Br-3 pHER3 IC50” value was determined as 107 pM.
Turning to B5, the “BT474 pHER3 % inhibition” value came out at 62%, the “BT474 pHER3 IC50” value stood at 708 pM, the “MCF7 pHER3 % inhibition” value worked out at 72% and the “MCF7 pHER3 IC50” value stood at 354 pM. Besides, the “SK-Br-3 pHER3 % inhibition” value is 79% and the “SK-Br-3 pHER3 IC50” value worked out at 106 pM.
For the molecule B6, the “BT474 pHER3 % inhibition” value came out at 55%, the “BT474 pHER3 IC50” value came out at 1330 pM, the “MCF7 pHER3 % inhibition” value is 64% and the “MCF7 pHER3 IC50” value was 427 pM. Further, the “SK-Br-3 pHER3 % inhibition” value came to 77% and the “SK-Br-3 pHER3 IC50” value is 263 pM.
For the molecule B7, the “BT474 pHER3 % inhibition” value is 66%, the “BT474 pHER3 IC50” value was 535 pM, the “MCF7 pHER3 % inhibition” value was 71% and the “MCF7 pHER3 IC50” value came out at 84 pM. Besides, the “SK-Br-3 pHER3 % inhibition” value is 81% and the “SK-Br-3 pHER3 IC50” value was determined as 110 pM.

Another test concerns the target T1, Human HER3, endogenous, on human cancer …. Briefly: cell-based or functional assay. This is another data set of the same source.
As to B1, the “BT-474 pAkt (S473) % inhibition” value was determined as 73%, the “BT-474 pAkt (S473) IC50” value is 1180 pM, the “MCF7 pAkt (S473) % inhibition” value came to 71% and the “MCF7 pAkt (S473) IC50” value stood at 412 pM. The “SK-Br-3 pAkt (S473) % inhibition” value is 90% and the “SK-Br-3 pAkt (S473) IC50” value is 113 pM.
B2: the “BT-474 pAkt (S473) % inhibition” value stood at 81%, the “BT-474 pAkt (S473) IC50” value was found to be 537 pM, the “SK-Br-3 pAkt (S473) % inhibition” value stood at 92% and the “SK-Br-3 pAkt (S473) IC50” value turned out to be 78 pM.
In the same order, the values of B3 are 82%, 167 pM, 89% and 92 pM.
In the same order, the values of B4 are 84%, 472 pM, 95% and 120 pM.
Turning to B5, the “BT-474 pAkt (S473) % inhibition” value amounted to 75%, the “BT-474 pAkt (S473) IC50” value stood at 1190 pM, the “MCF7 pAkt (S473) % inhibition” value amounted to 67% and the “MCF7 pAkt (S473) IC50” value turned out to be 296 pM. Also, the “SK-Br-3 pAkt (S473) % inhibition” value was 91% and the “SK-Br-3 pAkt (S473) IC50” value stood at 89 pM.
In the case of B6, the “BT-474 pAkt (S473) % inhibition” value amounted to 79%, the “BT-474 pAkt (S473) IC50” value was 3040 pM, the “SK-Br-3 pAkt (S473) % inhibition” value was determined as 91% and the “SK-Br-3 pAkt (S473) IC50” value worked out at 212 pM.
For the molecule B7, the “BT-474 pAkt (S473) % inhibition” value was determined as 77%, the “BT-474 pAkt (S473) IC50” value was determined as 424 pM, the “SK-Br-3 pAkt (S473) % inhibition” value worked out at 91% and the “SK-Br-3 pAkt (S473) IC50” value was 76 pM.

For the next test, the target named is T2, Hu HER3: CD33-[Human HER3, residues 20-640]-TAG (human, UniProt P21860 20-640).
T2 construct: also called hu HER3-Tag; HER3-Tag; not shown: C-terminal TAG (e.g., FLAG TAG)
T2 sequence (P21860 20-640): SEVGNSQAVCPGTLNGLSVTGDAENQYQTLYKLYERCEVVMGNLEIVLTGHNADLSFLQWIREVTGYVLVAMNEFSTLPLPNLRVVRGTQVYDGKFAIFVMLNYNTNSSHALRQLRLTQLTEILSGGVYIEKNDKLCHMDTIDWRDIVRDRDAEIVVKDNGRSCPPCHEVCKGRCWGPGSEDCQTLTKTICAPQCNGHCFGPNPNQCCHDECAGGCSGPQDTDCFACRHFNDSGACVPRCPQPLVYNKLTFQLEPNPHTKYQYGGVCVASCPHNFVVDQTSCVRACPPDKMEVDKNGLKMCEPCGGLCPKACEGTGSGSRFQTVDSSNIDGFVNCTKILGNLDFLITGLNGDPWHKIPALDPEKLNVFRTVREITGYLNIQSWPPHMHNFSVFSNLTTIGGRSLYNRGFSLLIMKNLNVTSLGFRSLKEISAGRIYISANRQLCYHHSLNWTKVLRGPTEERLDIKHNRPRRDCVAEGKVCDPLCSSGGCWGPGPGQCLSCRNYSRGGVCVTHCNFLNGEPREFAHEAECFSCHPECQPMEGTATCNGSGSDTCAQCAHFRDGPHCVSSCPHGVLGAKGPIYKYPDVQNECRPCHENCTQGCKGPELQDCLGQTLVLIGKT
Briefly: SET, IgG vs soluble HER3-Tag. How it is done: Affinity determination in solution was essentially performed as previously described (Friguet et al., (1985) J Immunol Methods 77:305-19). In order to improve the sensitivity and accuracy of the SET method, it was transferred from classical ELISA to ECL based technology (Haenel et al., (2005) Anal Biochem 339:182-84).
The data was evaluated with XLfit software (ID Business Solutions) applying customized fitting models.
Antibody affinity was determined by solution equilibrium titration (SET) as described above. The results are summarized in Table 3 and example titration curves for MOR12616 and MOR12925 are contained in FIG. 1.
B1 showed a Kd of 0.064 nM.
Still for that read-out and setting: then B2, with 0.133 nM; and B3, with 0.024 nM.
Turning to B4, the dissociation constant (Kd) came out at 0.03 nM.
The same measure, in the same setting: under B5 stands 0.054 nM.
On the same count and under the same terms, under B6 stands 0.23 nM.
For B7, binding was put at a Kd of 0.173 nM.

The target in a further test is T1, Human HER3, endogenous, on human cancer …. The test can be described thus: cell-based or functional assay. The source holds these as a separate data set.
B1: the “BT-474 proliferation % inhibition” value amounted to 27%, the “BT-474 proliferation IC50” value stood at 3.1 nM, the “SK-Br-3 proliferation % inhibition” value is 46% and the “SK-Br-3 proliferation IC50” value is 0.732 nM.
In the case of B2, the “BT-474 proliferation % inhibition” value is 39%, the “BT-474 proliferation IC50” value came to 1.72 nM, the “MCF7 proliferation % inhibition” value came out at 58% and the “SK-Br-3 proliferation % inhibition” value was 29%. In addition, the “SK-Br-3 proliferation IC50” value was 0.251 nM.
Take B3: the “BT-474 proliferation % inhibition” value was 48%, the “BT-474 proliferation IC50” value was 0.924 nM, the “SK-Br-3 proliferation % inhibition” value is 48% and the “SK-Br-3 proliferation IC50” value was 0.285 nM.
As to B4, the “BT-474 proliferation % inhibition” value stood at 42%, the “BT-474 proliferation IC50” value came to 0.376 nM, the “MCF7 proliferation % inhibition” value worked out at 69% and the “MCF7 proliferation IC50” value is 0.056 nM. The “SK-Br-3 proliferation % inhibition” value was 41% and the “SK-Br-3 proliferation IC50” value is 0.31 nM.
On to B5, for which the “BT-474 proliferation % inhibition” value was 37%, the “BT-474 proliferation IC50” value was found to be 2.56 nM, the “MCF7 proliferation % inhibition” value worked out at 53% and the “SK-Br-3 proliferation % inhibition” value stood at 45%. The “SK-Br-3 proliferation IC50” value is 2.35 nM.
For B6, the “BT-474 proliferation % inhibition” value was determined as 28%, the “BT-474 proliferation IC50” value stood at 10.6 nM, the “MCF7 proliferation % inhibition” value worked out at 52% and the “SK-Br-3 proliferation % inhibition” value was determined as 24%. In addition, the “SK-Br-3 proliferation IC50” value worked out at 5.41 nM.
Take B7: the “BT-474 proliferation % inhibition” value came to 43%, the “BT-474 proliferation IC50” value was found to be 0.539 nM, the “MCF7 proliferation % inhibition” value worked out at 48% and the “MCF7 proliferation IC50” value is 0.061 nM. Also, the “SK-Br-3 proliferation % inhibition” value was found to be 39% and the “SK-Br-3 proliferation IC50” value was 1.14 nM.
